# Reference: paper PMC11003968 (Scientific Reports, 2024)
# B1: Human hemoglobin A (oxyhemoglobin) (complex)
# chain 1: not shown
# chain 2: not shown
# Molecular target: IsdB Y165A, site-directed mutant of Staphylococcus aureus IsdB (Staphylococcus aureus, UniProt Q2FZF0 41-613, Y165A)
# Experiment: ELISA
# Settings: both partners purified
binder,measurement,value
B1,Kd,80 ± 11 µM
